Laboratory results: publication doi:10.1101/2024.10.04.616694
Like-named read-outs stand apart in the source and are kept apart here.

How the values were obtained:
Test in all cases: AUC
EGFP (Aequorea victoria) [1] = target: EGFP (Aequorea victoria)
EGFP (Aequorea victoria) [2] = target: EGFP (Aequorea victoria); remark: listed apart in the source
EYFP (Aequorea victoria) [3] = target: EYFP (Aequorea victoria)
EYFP (Aequorea victoria) [4] = target: EYFP (Aequorea victoria); remark: listed apart in the source

Row | stoichiometry N (EGFP (Aequorea victoria) [1]) | stoichiometry N (EGFP (Aequorea victoria) [2]) | stoichiometry N (EYFP (Aequorea victoria) [3]) | stoichiometry N (EYFP (Aequorea victoria) [4]) | Substance
1 | 2 | 2 | – | – | EGFP
2 | – | – | 2 | 2 | EYFP
